In paper PMC2858642:

Target: His6-Bcl-2ΔTM G154A/G155A mutant
Assay: fluorescence polarisation

- Kd: 0.03 µM
Substance: His6-Bcl-2ΔTM G154A/G155A mutant (domain or fragment)
